Molecular target: human C1q (human, UniProt P02745 23-245; P02746 28-253; P02747 29-245)
Assay: cell-based or functional assay

Sequence of human C1q (P02745 23-245 limits assumed, chain 1 of 3): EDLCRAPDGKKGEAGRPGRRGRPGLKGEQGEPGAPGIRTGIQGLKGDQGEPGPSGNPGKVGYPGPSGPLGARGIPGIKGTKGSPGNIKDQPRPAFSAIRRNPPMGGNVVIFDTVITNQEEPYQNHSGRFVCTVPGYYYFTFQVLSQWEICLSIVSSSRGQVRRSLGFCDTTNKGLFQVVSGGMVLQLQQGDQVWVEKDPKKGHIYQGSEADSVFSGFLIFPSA
Sequence of human C1q (P02746 28-253 limits assumed, chain 2 of 3): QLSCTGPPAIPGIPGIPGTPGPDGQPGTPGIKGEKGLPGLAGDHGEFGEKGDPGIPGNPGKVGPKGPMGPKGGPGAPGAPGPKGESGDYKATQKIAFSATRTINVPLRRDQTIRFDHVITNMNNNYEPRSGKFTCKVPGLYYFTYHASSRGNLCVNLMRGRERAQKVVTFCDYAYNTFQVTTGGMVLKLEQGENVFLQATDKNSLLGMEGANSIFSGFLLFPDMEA
Sequence of human C1q (P02747 29-245 limits assumed, chain 3 of 3): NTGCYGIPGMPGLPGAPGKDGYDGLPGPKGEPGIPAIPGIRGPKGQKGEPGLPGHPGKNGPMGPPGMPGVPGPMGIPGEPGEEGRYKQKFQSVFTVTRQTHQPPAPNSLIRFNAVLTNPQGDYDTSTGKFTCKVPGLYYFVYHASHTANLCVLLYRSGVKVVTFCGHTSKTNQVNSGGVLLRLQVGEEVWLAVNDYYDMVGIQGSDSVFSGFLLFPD

B1: FabA (Fab)
heavy: QVQLVQSGAELKKPGASVKVSCKSSGYHFTSYWMHWVKQAPGQGLEWIGVIHPNSGSINYNEKFESRVTITVDKSTSTAYMELSSLRSEDTAVYYCAGERDSTEVLPMDYWGQGTTVTVSSASTKGPSVFPLAPSSKSTSGGTAALGCLVKDYFPEPVTVSWNSGALTSGVHTFPAVLQSSGLYSLSSVVTVPSSSLGTQTYICNVNHKPSNTKVDKKVEPKSCDKTHT
light: DVQITQSPSSLSASLGERATINCRASKSINKYLAWYQQKPGKAPKLLIYSGSTLQSGIPARFSGSGSGTDFTLTISSLEPEDFAMYYCQQHNEYPLTFGQGTKLEIKRTVAAPSVFIFPPSDEQLKSGTASVVCLLNNFYPREAKVQWKVDNALQSGNSQESVTEQDSKDSTYSLSSTLTLSKADYEKHKVYACEVTHQGLSSPVTKSFNRGEC
  IC50 of block of the classical pathway (Weislab ELISA, IgM-coated wells, C5b-9 detection): ≤ 0.3 µg/mL

Source: US20240059765A1 (ANNEXON, published 2024)
